Results: patent publication US12269859B2, “Synthetic immune receptors and methods of use thereof” (Angeles Therapeutics, Inc., priority 2016, dated 2025)

System: target antigen-expressing cell line
Test: Jurkat NFAT-GFP assay, coculture with target cell lines expressing the respective target antigen (summary Table 10A)
Type: cell-based, human
Parameters: key: The signs +/−, +, 2+ etc. after the name of the cell lines indicate the relative degree of positivity on the Jurkat-NFAT-GFP assay as measured by the % GFP positive cells; +: relative degree of positivity on the Jurkat-NFAT-GFP assay as measured by the % GFP positive cells; 2+: relative degree of positivity on the Jurkat-NFAT-GFP assay as measured by the % GFP positive cells
Procedure, shortened: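 Jurkat cells carrying an NFAT-site IL-2 promoter driving GFP were lentivirally transduced with SIRs, puromycin-selected, then cocultured with antigen-expressing target cells at E:T about 1:2 for about 4–18 hours. GFP induction was read by flow cytometry as % GFP-positive cells versus parental Jurkat-NFAT-GFP.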

[1] = coculture with TF228.1.1.6 cells

B1: 060717-L04 (protein)
chain: MALPVTALLLPLALLLHAARPQSVVTQPASVSGSPGQSITISCTGTSSDVGGYNYVSWYQQHPGKAPKLMIYDVSKRPSGVSNRFSGSKSGNTASLTISGLQAEDEADYYCSSYTSSSTLVFGGGTKLTVLGLEIQNPDPAVYQLRDSKSSDKSVCLFTDFDSQTNVSQSKDSDVYITDKCVLDMRSMDFKSNSAVAWSNKSDFACANAFNNSIIPEDTFFPSSDVPCDVKLVEKSFETDTNLNFQNLSVIGFRILLLKVAGFNLLMTLRLWSSRAKRSGSGVKQTLNFDLLKLAGDVESNPGPTSMDWIWRILFLVGAATGAHSFEEVQLVESGGAFVQPGGSLRLSCAASGFTFSSYAMTWVRQAPGKGLEWVSTISGRGRSTFYADSVKGRFTISRDNSKNTLYLQMNSLRAEDTAVYYCARYYHAGAFDLWGQGTLVTVSSTREDLKNVFPPEVAVFEPSKAEIAHTQKATLVCLATGFYPDHVELSWWVNGKEVHSGVCTDPQPLKEQPALNDSRYCLSSRLRVSATFWQNPRNHFRCQVQFYGLSENDEWTQDRAKPVTQIVSAEAWGRADCGITSASYHQGVLSATILYEILLGKATLYAVLVSALVLMAMVKRKDSRGRAKRSGSGATNFSLLKQAGDVEENPGPSRGHMTEYKPTVRLATRDDVPRAVRTLAAAFADYPATRHTVDPDRHIERVTELQELFLTRVGLDIGKVWVADDGAAVAVWTTPESVEAGAVFAEIGPRMAELSGSRLAAQQQMEGLLAPHRPKEPAWFLATVGVSPDHQGKGLGSAVVLPGVEAAERAGVPAFLETSAPRNLPFYERLGFTVTADVEVPEGPRTWCMTRKPGA
B1 was tested, and the “NFAT-GFP ASSAY Positive Cell lines” value (coculture with L363 cells) was 2+ and the “NFAT-GFP ASSAY Positive Cell lines” value (coculture with U266 cells) was “+”.

B2: 091616-Y01 (protein)
chain: MALPVTALLLPLALLLHAARPDIQMTQSPSSLSASVGDTVTITCQANGYLNWYQQRRGKAPKLLIYDGSKLERGVPSRFSGRRWGQEYNLTINNLQPEDIATYFCQVYEFVVPGTRLDLKRTVAAPLEEQKLISEEDLGSGEDLKNVFPPEVAVFEPSKAEIAHTQKATLVCLATGFYPDHVELSWWVNGKEVHSGVCTDPQPLKEQPALNDSRYCLSSRLRVSATFWQNPRNHFRCQVQFYGLSENDEWTQDRAKPVTQIVSAEAWGRADCGITSASYHQGVLSATILYEILLGKATLYAVLVSALVLMAMVKRKDSRGRAKRSGSGATNFSLLKQAGDVEENPGPTSMDWIWRILFLVGAATGAHSFEQVQLLQSGAAVTKPGASVRVSCEASGYNIRDYFIHWWRQAPGQGLQWVGWINPKTGQPNNPRQFQGRVSLTRHASWDFDTFSFYMDLKALRSDDTAVYFCARQRSDYWDFDVWGSGTQVTVSSASTKGPTREQKLISEEDGSGIQNPDPAVYQLRDSKSSDKSVCLFTDFDSQTNVSQSKDSDVYITDKCVLDMRSMDFKSNSAVAWSNKSDFACANAFNNSIIPEDTFFPSSDVPCDVKLVEKSFETDTNLNFQNLSVIGFRILLLKVAGFNLLMTLRLWSSRAKRSGSGVKQTLNFDLLKLAGDVESNPGPSRGHMTEYKPTVRLATRDDVPRAVRTLAAAFADYPATRHTVDPDRHIERVTELQELFLTRVGLDIGKVWVADDGAAVAVWTTPESVEAGAVFAEIGPRMAELSGSRLAAQQQMEGLLAPHRPKEPAWFLATVGVSPDHQGKGLGSAVVLPGVEAAERAGVPAFLETSAPRNLPFYERLGFTVTADVEVPEGPRTWCMTRKPGA
modifications: Synthetic Immune Receptor (SIR)
B2 was tested, and the “NFAT-GFP ASSAY Positive Cell lines” value (coculture with HL2-3 cells) was “HL2-3 (+/−)”.

B3: 040716-B03 (protein)
chain: MALPVTALLLPLALLLHAARPLEGKPIPNPLLGLDSTGSGEDLKNVFPPEVAVFEPSKAEIAHTQKATLVCLATGFYPDHVELSWWVNGKEVHSGVCTDPQPLKEQPALNDSRYCLSSRLRVSATFWQNPRNHFRCQVQFYGLSENDEWTQDRAKPVTQIVSAEAWGRADCGITSASYHQGVLSATILYEILLGKATLYAVLVSALVLMAMVKRKDSRGRAKRSGSGATNFSLLKQAGDVEENPGPTSMALPVTALLLPLALLLHAARPDEFDVQLVESGGGLVQPGGSLRLSCAASGSIGGLNAMAWYRQAPGKERELVAGIFGVGSTRYADSVKGRFTISRDNSKNTVYLQMNSLRPEDTAVYYCRMSSVTRGSSDYWGQGTLVTVSSLEGGGGSGGGGSGGGGSGSGGSGSGGSGSGGSGSGGSFEVQLVESGGSLVQPGGSLRLSCAASGFTFDDYAMSWVRQVPGKGLEWVSSINWSGTHTDYADSVKGRFTISRNNANNTLYLQMNSLKSEDTAVYYCAKNWRDAGTTWFEKSGSAGQGTQVTVSSTREQKLISEEDGSGIQNPDPAVYQLRDSKSSDKSVCLFTDFDSQTNVSQSKDSDVYITDKCVLDMRSMDFKSNSAVAWSNKSDFACANAFNNSIIPEDTFFPSSDVPCDVKLVEKSFETDTNLNFQNLSVIGFRILLLKVAGFNLLMTLRLWSSRAKRSGSGVKQTLNFDLLKLAGDVESNPGPSRGHMTEYKPTVRLATRDDVPRAVRTLAAAFADYPATRHTVDPDRHIERVTELQELFLTRVGLDIGKVWVADDGAAVAVWTTPESVEAGAVFAEIGPRMAELSGSRLAAQQQMEGLLAPHRPKEPAWFLATVGVSPDHQGKGLGSAVVLPGVEAAERAGVPAFLETSAPRNLPFYERLGFTVTADVEVPEGPRTWCMTRKPGA
modifications: Synthetic Immune Receptor (SIR)
B3 was tested, and the “NFAT-GFP ASSAY Positive Cell lines” value (coculture with A431 cells) was “(+), A431 (+)”, the “NFAT-GFP ASSAY Positive Cell lines” value (coculture with MCF7 cells) was “MCF7 (+/−), SKBR3” and the “NFAT-GFP ASSAY Positive Cell lines” value (coculture with SKBR3 cells) was “(+), A431 (+)”.

B4: 040716-H06 (protein)
chain: MALPVTALLLPLALLLHAARPDEFDVQLVESGGGLVQPGGSLRLSCAASGSIGGLNAMAWYRQAPGKERELVAGIFGVGSTRYADSVKGRFTISRDNSKNTVYLQMNSLRPEDTAVYYCRMSSVTRGSSDYWGQGTLVTVSSLEGGGGSGGGGSGGGGSGSGGSGSGGSGSGGSGSGGSFEVQLVESGGSLVQPGGSLRLSCAASGFTFDDYAMSWVRQVPGKGLEWVSSINWSGTHTDYADSVKGRFTISRNNANNTLYLQMNSLKSEDTAVYYCAKNWRDAGTTWFEKSGSAGQGTQVTVSSTREQKLISEEDGSGIQNPDPAVYQLRDSKSSDKSVCLFTDFDSQTNVSQSKDSDVYITDKCVLDMRSMDFKSNSAVAWSNKSDFACANAFNNSIIPEDTFFPSSDVPCDVKLVEKSFETDTNLNFQNLSVIGFRILLLKVAGFNLLMTLRLWSSRAKRSGSGVKQTLNFDLLKLAGDVESNPGPSRGHMTEYKPTVRLATRDDVPRAVRTLAAAFADYPATRHTVDPDRHIERVTELQELFLTRVGLDIGKVWVADDGAAVAVWTTPESVEAGAVFAEIGPRMAELSGSRLAAQQQMEGLLAPHRPKEPAWFLATVGVSPDHQGKGLGSAVVLPGVEAAERAGVPAFLETSAPRNLPFYERLGFTVTADVEVPEGPRTWCMTRKPGA
modifications: Polynucleotide encoding a Synthetic Immune Receptor (SIR)
In the case of B4, the “NFAT-GFP ASSAY Positive Cell lines” value (coculture with MCF7 cells) is reported as “MCF7 (+), SKBR3 (+)” and the “NFAT-GFP ASSAY Positive Cell lines” value (coculture with SKBR3 cells) is reported as “MCF7 (+), SKBR3 (+)”.

B5: 121416-H05 (protein)
chain: MALPVTALLLPLALLLHAARPLEGKPIPNPLLGLDSTGSGEDLKNVFPPEVAVFEPSKAEIAHTQKATLVCLATGFYPDHVELSWWVNGKEVHSGVCTDPQPLKEQPALNDSRYCLSSRLRVSATFWQNPRNHFRCQVQFYGLSENDEWTQDRAKPVTQIVSAEAWGRADCGITSASYHQGVLSATILYEILLGKATLYAVLVSALVLMAMVKRKDSRGRAKRSGSGATNFSLLKQAGDVEENPGPTSMALPVTALLLPLALLLHAARPDYIHVTQSPSSLSVSIGDRVTINCQTSQGVGSDLHWYQHKPGRAPKLLIHHASSVEDGVPSRFSGTGFHTSFNLTINDLQADDIGTYYCQVLQSFGRGSRLDTKGGGGSGGGGSGGGGSRAHLVQSGTAMKKPGASVRVSCQTSGYTFTAHILFWFRQAPGRGLEWVGWIKPQYGAVNFGGGFRDRVTLTRDVYREIAYMDIRGLKPDDTAVYYCARDRSYGDSSWALDAWGQGTTVVVSATREQKLISEEDGSGIQNPDPAVYQLRDSKSSDKSVCLFTDFDSQTNVSQSKDSDVYITDKCVLDMRSMDFKSNSAVAWSNKSDFACANAFNNSIIPEDTFFPSSDVPCDVKLVEKSFETDTNLNFQNLSVIGFRILLLKVAGFNLLMTLRLWSSRAKRSGSGVKQTLNFDLLKLAGDVESNPGPSRGHMTEYKPTVRLATRDDVPRAVRTLAAAFADYPATRHTVDPDRHIERVTELQELFLTRVGLDIGKVWVADDGAAVAVWTTPESVEAGAVFAEIGPRMAELSGSRLAAQQQMEGLLAPHRPKEPAWFLATVGVSPDHQGKGLGSAVVLPGVEAAERAGVPAFLETSAPRNLPFYERLGFTVTADVEVPEGPRTWCMTRKPGA
modifications: Polynucleotide encoding a Synthetic Immune Receptor (SIR)
In the case of B5, the “NFAT-GFP ASSAY Positive Cell lines” value (coculture with HL2-3 cells) is reported as “HL2-3 (+/−),” and the “NFAT-GFP ASSAY Positive Cell lines” value [1] is reported as “TF228.1.1.6 (+/−)”.

B6: 091616-X01 (protein)
chain: MALPVTALLLPLALLLHAARPELVLTQSPGTLSLSAGERATLSCRASQSVSSGSLAWYQQKPGQAPRLLIYGASTRATGIPDRFSGSGSGTDFTLTIGRLEPEDLAVYYCQQYGTSPYTFGQGTKLEILEEQKLISEEDLGSGEDLKNVFPPEVAVFEPSKAEIAHTQKATLVCLATGFYPDHVELSWWVNGKEVHSGVCTDPQPLKEQPALNDSRYCLSSRLRVSATFWQNPRNHFRCQVQFYGLSENDEWTQDRAKPVTQIVSAEAWGRADCGITSASYHQGVLSATILYEILLGKATLYAVLVSALVLMAMVKRKDSRGRAKRSGSGATNFSLLKQAGDVEENPGPTSMDWIWRILFLVGAATGAHSFELEQSGAEVKKPGSSVQVSCKASGGTFSMYGFNWVRQAPGHGLEWMGGIIPIFGTSNYAQKFRGRVTFTADQATSTAYMELTNLRSDDTAVYYCARDFGPDWEDGDSYDGSGRGFFDFWGQGTLVTVSSTREQKLISEEDGSGIQNPDPAVYQLRDSKSSDKSVCLFTDFDSQTNVSQSKDSDVYITDKCVLDMRSMDFKSNSAVAWSNKSDFACANAFNNSIIPEDTFFPSSDVPCDVKLVEKSFETDTNLNFQNLSVIGFRILLLKVAGFNLLMTLRLWSSRAKRSGSGVKQTLNFDLLKLAGDVESNPGPSRGHMTEYKPTVRLATRDDVPRAVRTLAAAFADYPATRHTVDPDRHIERVTELQELFLTRVGLDIGKVWVADDGAAVAVWTTPESVEAGAVFAEIGPRMAELSGSRLAAQQQMEGLLAPHRPKEPAWFLATVGVSPDHQGKGLGSAVVLPGVEAAERAGVPAFLETSAPRNLPFYERLGFTVTADVEVPEGPRTWCMTRKPGA
modifications: Synthetic Immune Receptor (SIR)
With B6 the “NFAT-GFP ASSAY Positive Cell lines” value (coculture with HL2-3 cells) was “HL2-3 (+/−)” and the “NFAT-GFP ASSAY Positive Cell lines” value [1] was “TF228.1.1.6 (+),”.
